Assay results: article doi:10.1101/2024.01.08.574761 (bioRxiv, 2024)

Target: Claspin C-terminal polypeptide #18 (897-1339aa), 3x Flag, dephosphorylated with λPPase (human, UniProt Q9HAW4 897-1339, dephosphorylated with λPPase)
Test: native gel or EMSA

Sequence of Claspin C-terminal polypeptide #18 (897-1339aa), 3x Flag, dephosphorylated with λPPase (Q9HAW4 897-1339): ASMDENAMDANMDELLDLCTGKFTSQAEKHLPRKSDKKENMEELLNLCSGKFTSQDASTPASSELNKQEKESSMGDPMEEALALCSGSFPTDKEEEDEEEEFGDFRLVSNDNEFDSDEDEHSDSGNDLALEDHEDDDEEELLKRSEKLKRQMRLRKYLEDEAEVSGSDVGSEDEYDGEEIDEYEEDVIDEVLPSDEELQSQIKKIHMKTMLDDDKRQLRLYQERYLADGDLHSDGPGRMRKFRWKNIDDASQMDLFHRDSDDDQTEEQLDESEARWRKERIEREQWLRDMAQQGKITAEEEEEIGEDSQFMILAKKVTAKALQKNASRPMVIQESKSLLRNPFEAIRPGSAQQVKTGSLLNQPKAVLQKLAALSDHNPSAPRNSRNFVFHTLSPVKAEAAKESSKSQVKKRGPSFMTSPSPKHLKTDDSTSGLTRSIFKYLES

B1: Claspin N-terminal polypeptide #2 (1-350aa), dephosphorylated with λPPase (domain or fragment)
chain: MTGEVGSEVHLEINDPNVISQEEADSPSDSGQGSYETIGPLSEGDSDEEIFVSKKLKNRKVLQDSDSETEDTNASPEKTTYDSAEEENKENLYAGKNTKIKRIYKTVADSDESYMEKSLYQENLEAQVKPCLELSLQSGNSTDFTTDRKSSKKHIHDKEGTAGKAKVKSKRRLEKEERKMEKIRQLKKKETKNQEDDVEQPFNDSGCLLVDKDLFETGLEDENNSPLEDEESLESIRAAVKNKVKKHKKKEPSLESGVHSFEEGSELSKGTTRKERKAARLSKEALKQLHSETQRLIRESALNLPYHMPENKTIHDFFKRKPRPTCHGNAMALLKSSKYQSSHHKEIIDT
modifications: dephosphorylated with λPPase
binding result: binds
